According to the nanobody polyreactivity screen of Harvey et al. (2022):

Experiment: yeast display, Sf9 membrane polyspecificity reagent, FACS + sequencing; frameworks hold sequencing errors
Procedure, shortened: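 After 36–48 hours of galactose induction, yeast (Saccharomyces cerevisiae BJ5465) displaying a synthetic nanobody library were stained at 4 °C for 1 hour with 10% biotinylated, detergent-solubilized Sf9 membrane reagent. Streptavidin microbeads enriched the stained cells before FACS sorting into low and high (top ~1%) gates on anti-HA and streptavidin fluorescence. Each clone's polyreactivity label reflects its gate of origin.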

Row | Sequence | polyreactivity (PSR sort gate)
1 | QVQHVESGGGLVQAGGSLRLSCAASGSTFYGNAMGWYRQAPGKEREFVASINSRGGITYYADSVKGRFTISRDNAKNTVYLQMNSLKPEDTAVYYCNTRVLSFYHYPYDYWGQGTQVTVSS | high polyreactivity
2 | QVQHVESGGGLVQAGGSLRLSCAASGSTFYINAKGWYRQAPGKEREFVASISWRGGSTYADSVKGRFTISRDNAKNTVYLQMNSLKPEDTAVYFCAAEFDVYSHHWITSYDYWGQGTQVTVSS | high polyreactivity
3 | QVQHVESGGGLVQAGGSLRLSCAASGSTIYHYAMGWSRPAHGKERELVAAITTIGGRTYYADSVKGRFTISRDNAKNTVYLQMNSLKPEDTAVYYCAAGYRAWEPYGHYGYWGQGTQVTVSS | high polyreactivity
4 | QVQHVESGGGLVQAGGSLRLSCAASGSTYNGYAMGWYRQATGKERELVAAISTSGGSTYYADSVKGRFTISRDNAKNTVYLQMNSLKPEDTAVYYCATYYGKRYMRRVDYWGQGTQVTVSS | high polyreactivity
5 | QVQHVESGGGLVQAGGSLRLSCAASGYNFPYNPMGWYRQATGKEREFVAASTSSGGSTYYADSVKGRFTISRDNAKNTVYLQMNSLKPEDTAVYYCARVPLHRYGYWGQGTQVNVSS | high polyreactivity
6 | QVQHVESGGGLVQAGGSLRLSCAASRLTFTRNAMGWYRQAPGKERELVAAITRSSGSTYYADSVKGRFTISRDNAKNTVYLQMNSLKPEDTAVYYCNARRAAYYHRARELDYWGQGTQVTVSS | high polyreactivity
7 | QVQHVESGGGLVQAGGSLRLSCAATGRIFTAYYAMGWYRQAPGKERELVASISSSGTSTYADSVKGRFTISRDNAKNTVYLQMNSLKPDDTAVYYCATRKLRTRRYDYGYWGQGTQVTVSS | low polyreactivity
8 | QVQHVESGGGLVQAGGSLRLSCAPSGITFYTYTMGWYRQAHGKERQLVAVISASGARTYYADSVKGRFTISRDNAKNTVYLQMNSLKPEDTAVYYCAARSYFISPWRFDYWGQGTQVTVSS | high polyreactivity
9 | QVQHVESGGGLVQAGGSLRLSCDASGSTFPYYTMGWYRQAPGKERELVAAITWRGGRTYYADSVKGRFTISRDNAKNTVYLQMNSLKPEDTAVYYCATGYSYRGYSALSGYDYWGQGTQVTVSS | high polyreactivity
10 | QVQHVESGGGLVQAGGSLRLSCPASGIIFDYYAMGWYRQAPGKERELVATITSGGSTNYADSVKGRFTISRDNAKNTVYLQMNSLKPEDTAVYYCAARTYWFPDIYPGLGMDYWGQGTQVTVSS | low polyreactivity
11 | QVQHVESGGGLVQAGGSLRLSSAASGFTFYGYAMGWYRPARGNERELVATIRRSTGSTYYADSVKGRFTISRDNAKYSVYLQMNSLKPDDTAVYYCATRVWFPITSYDYWGQGTQVTVSS | low polyreactivity
12 | QVQHVESGGGLVQAGGSLRLSSAASGRIFPINAMGWYRQAPGKERELVAAISYSGGSTYYADSVKGRFTISRDNAKNTVYLQMNSLKPEDTAVFYCNARYPYSYYHRYYYWGQGTQVTVSS | high polyreactivity
13 | QVQHVESGGGLVQAGGSNRLSCASSGSTFPGNAMGWYRQAPGKERELVARINDGADTNYADSVKGRFTISRDNAKNTVFLQMNSLKPEDTAVYYCAKPFYDGRTHFVSWGQGTQVTVSS | low polyreactivity
14 | QVQHVESGGGLVQAGGSRRLSCAASGRTFREYAMGWYRQAPGKERELVAAISDSGDSTYYADSVKGRFTISRDNAKNTVNLQMNSLKPVHTAVYYCAADYYDYEYDYWGQGTQVTVSS | low polyreactivity
15 | QVQHVESGGGLVQAGGTLRLSCASSGRTLYYYTMGWYRQAPGKESELVAAISKSGGSTYYADSVKGRFTISRDNAKNTVYLQMNSLKPEDTAVFYCAADRSAYSRGYVRYIYWGQGTKVTVSS | high polyreactivity
16 | QVQHVESGGGLVQAGRSLRLSCAASGFIFRYSAMGWYRPAPGKERELVATITGRGGSTYYADSVKGRFTISRDNAKNTVYLQMNSLIPEDTAVYYCAARARYSPAPYDYWGQGTQVTVSS | high polyreactivity
17 | QVQHVESGGGLVQARGSLRLSCAASGLTFNTYAMGWYRQAPGQDRELVAAISRRGSRTYYADSVKGRFTISRDNAKNTVYLQMNSLNREDTAVYYCAAPRASGYYWGQGTQVTVSS | high polyreactivity
18 | QVQHVESGGGLVQAVVSLRLSCAATGRIISYNAMGWYRQAPGKEWELVAAISWVGGSTYYADSVKGRFTISRDIAKNTVYLQMNCLKPEDTAVYYCAKGWYRIKRNDYWGQGTQVTVSS | low polyreactivity
19 | QVQHVESGGGLVQPGGSHRLSCAASGSTFQIYAMRWYRQAPGKVRELVAAITSSSSTNYADSVKGRFTISRDNAKNTDYLQMNSLKPEDPAVYYCAADVSRRCNWYDYWGQGTQVTVSS | low polyreactivity
20 | QVQHVESGGRLVQAGGSLRLSCAASGFIFPNYAMGWYRQAPGKERELVAVISRSGGSTYYADSVKGRFTISRDNAKNTVYLQMNSLKPEDTAVYYCNAVARGYGYDYWGQGTQVTVSS | high polyreactivity
21 | QVQHVESGGRLVQAGGSLRLSCAPSGFIFSKYAMGWYRQAPGKERELVAAITRSGGRTYYADSVKGRFTISRDNAKNTVYLQMNSLKPEDTAVYYCAASWLYFGRDYWGQGTQVTVSS | high polyreactivity

Row | Sequence | polyreactivity (PSR sort gate)
22 | QVQHVESGGRLVQAGGSLRLSWAASGRIFRVNAMGRYRQAPGKERELVAAINFSGTSTYFADSVKGRFTISRDNAKNTVYLQMNSLKPDDTAVYYCNALTTSNSGRFYYWGQGTQVTVSS | low polyreactivity
23 | QVQHVESGGVLVQAGGSLRLSCAASGSIFYPNAMGWYRQAPGKERELVAAISSSGGTNYADSVKGRFTISRDNAKNTVYLQMNSLKPEDTAVYYCNARDKVRYRFSRMDYWGQGTQVTVSS | low polyreactivity
24 | QVQHVESGRGLVQAGGSLRLSCAASGIIFLYYAMGWYREAPGKVRELVAAITGSGGTTYYADSVKGRFTISRDNAMNTVYLQMNSLKPEDTAVYYCATPPPEVWQRWYREYDYWGQGTQVTVSS | low polyreactivity
25 | QVQHVESGRGLVQAGGSLRLSCPASGSTFSYYAMGWYRQAPGKERELVASISSTTGSTYYADSVKGRFTISRDNAKNTVYVKMNSVKPEDTAVYYCAADIPPGGGDYWGQGSQVTVSS | low polyreactivity
26 | QVQHVESGRGLVQAGRSLRLSCAASGRIFQRYAMGWYRQAPGKERELVAVITKRGGNTYYADSVKGRFTISRDNAKNTVYLQMNSLKPEDTAVYYCASRSGRSTGDYWGQGTQVTVSS | high polyreactivity
27 | QVQHVESGVGLVQAGGSLRLSCAASGSIFVHNAMGWYRQAPGKERELVAGISARAASTYYADSVKGRFTISRDNAKNTVYLQMNSLKPEDTAVYYCAADRIPGYRVYGFYYWGQGTQVTVSS | low polyreactivity
28 | QVQHVESRGGLVQAGGSLRLSCAASGFTFYTNVMGWSRQAPGKERELVAAINSGGSTNYADSVKGRFTISRDNAKNTVYLQMNSLKAEDTAVYYCNKRGTEIGYDYWGQGTQVTVSS | low polyreactivity
29 | QVQHVESRGGLVQAGGSLRLSCAASGSTFCRYAMGWYRKAPGKEREFVARITYSSGRTYYADSVKGRFTISRDNAKNTVYLQMNSLKPDDTAVYYCAAGDYTRGPCGDYWGQGTQVTVSS | high polyreactivity
30 | QVQHVESRGGLVQSGGSLRLSCAASGSIFSYYDLGWYRQAPGKERELVASISSGGSTYYADSVKGRFTISRDNAKNTVYLQMNSLKPEDTAVYYCAAVSRWLYWEDDYWGQGTQVTVSS | low polyreactivity
31 | QVQHVESVGGIVQAGGSLRLICAASGFIFVGYAMGWYRQAPGKERELVAAISTSGGRTYYADSVKGRFTISRDNAKNTVYLQLNSLKPEDTAVYYCAAKRPGCIQYSYYYWGQGTQVTVSS | high polyreactivity
32 | QVQHVESVGGLVQAGGSLRLSCAASASIIYANTMGWYRQAPGKEREFVATITDSGAIKYYADSVKGRFTISRDNAKNTVYLQMNSLKPEDTAVYYCNADSIYSARGWLYGYWGQGTQVTVSS | low polyreactivity
33 | QVQHVQSGGGLVQAGGSLRLSCAASGSTFPGYAMGWYRQDPGKEREFVAAISTSGGRTYYADSVKGRFTISRDNAKNTVYVQMNSLKPEDTAVYFCNADRYSQYSHSRYDYWGQGTQVTVSS | high polyreactivity
34 | QVQIEESGGGLVQAGGSHRLSCAASGRTFGGNAMGRYRQAPRKERELVAAISISGGSNTYYADSVKGRFTISRDTGKNTVYLQMNSLKPEDTAVYFCAARSTVYISSDYWGQGTQVTVSS | low polyreactivity
35 | QVQIEESGGGLVQAGGSLRLICAASGIIIMDYDMGWSRQAPGKERELVAAISRSGGSTYYADSVKGRFKISRDNAKNSVYLQMNSLKPEDTAVYYCNADNVDYPSAPLNPGKGIYYWGQGTQVTVSS | low polyreactivity
36 | QVQIEESGGGLVQAGGSLRLSCAASASIFYPNAMGWYRQAPVKEREFVAAITRNGDSTYYADSVKGRFTISRDNAKNTVYLQMNSLKPEDTAVYYCNTDGQGIYSYNKDLSWISGYDYWGQGTQVTVSS | low polyreactivity
37 | QVQIEESGGGLVQAGGSLRLSCAASGITFYWYARGWYRQAPVTERELVAAITRSGSSTYYADSVKGRFTISRDNAKNTVYLQMYSLKPEDTAVDYCAALPYKPYYDAYDYWGQGTQVTVSS | high polyreactivity
38 | QVQIEESGGGLVQAGGSLRLSCAASGRIFARNALGWYRQSPGTEREFVAAITHSGGNTYYADSVKGRFTISRDNAKNSVYLQMNSLKPEDTAVYYCAKDYRSTKYDYWGQGTQVTVSS | low polyreactivity
39 | QVQIGESGGGLVQAGGSLRLSCAASGSIIVGYAMGWYRQAPGKEREVVAAISKRGTSTYYADSVKGRFTISRDNAKNTVYLQMNSLKPEETAVYDCNALDLVNHGWTERLDQDYYYWGQGTQVTVSS | high polyreactivity
40 | QVQIGESGGGLVQAGGSRRLSCAASGLTFYLYAMGWYRQAPGKERELVAAITTSGGSTYYADSVKGRFTISRDNAKNTVYLQMNSLKPEDTAVYDCATQGAIRGYGYWGQGTQVTVSS | high polyreactivity
41 | QVQIGQSGGGLVQAGGSLRLSCAASGRIIWSNAMGWNRQAPGKERELVAAIRNTGSTNYADSVKGRFTISRDNAKNTVYLQMNSLKPEDTEVYYCAADRATYCTYAYGYWGQGTQVTVSS | high polyreactivity
